# In patent US20240002491A1, “METHODS FOR SELECTING PATIENTS FOR TREATMENT WITH AN NGF ANTAGONIST” (Regeneron Pharmaceuticals, Inc., priority 2022, published 2024):
# Key:
# [1] = test system: adults with moderate-to-severe chronic pain associated with osteoarthritis (OA) of the knee or hip; assay: FACT OA1 (NCT03161093, R475-OA-1611) Phase 3 trial, WOMAC pain and physical function; type: in vivo, human
# Description: (§1) NCT02683239 (R475-PN-1523, or “FACT LTS”), NCT03161093 (R475-OA-1611, or “FACT OA1”), and NCT03304379 (R475-OA-1688, or “FACT OA2”) each were Phase 3 trials evaluating fasinumab in adults with moderate-to-severe chronic pain associated with osteoarthritis (OA) of the knee or hip. All three of these trials enrolled patients with OA of the knee or hip who had inadequate pain relief with acetaminophen and were intolerant to or had inadequate pain relief with opioids, or were unwilling or unable to take opioids. Complete inclusion and exclusion criteria for the trials are described at clinicaltrials.gov/ct2/show/NCT03161093, clinicaltrials.gov/ct2/show/NCT03304379, and clinicaltrials.gov/ct2/show/NCT02683239.
# FACT OA1 and FACT OA2 assessed the efficacy of fasinumab in comparison to nonsteroidal anti-inflammatory drugs (NSAIDs; naproxen, diclofenac, or celecoxib) for treatment of OA. FACT OA1 includes results from a total of 1,801 patients randomized to one of four treatment arms: fasinumab 1 mg SC once every 8 weeks (Q8W) (n=304), fasinumab 1 mg SC once every 4 weeks (Q4W) (n=639), naproxen 500 mg twice daily (n=644), or placebo (n=214). In FACT OA2, patients were randomized into one of six treatment groups: fasinumab 1 mg SC once every 4 weeks (Q4W), fasinumab 3 mg SC once every 4 weeks (Q4W), fasinumab 6 mg SC once every 8 weeks (Q8W), celecoxib 200 mg once daily, diclofenac 75 mg twice daily, or placebo. While the FACT OA2 trial was still ongoing, enrollment into the fasinumab 3 mg Q4W and 6 mg Q8W groups was stopped for safety considerations; patients enrolled in those dose regimens discontinued study drug and entered the post-treatment follow-up period.
# Fasinumab patients in both trials also reported improvements in their pain and physical function (WOMAC score) compared to those treated with the highest-approved prescription doses of NSAIDS.
# alkaline phosphatase [2] = details: cited from earlier work
# alkaline phosphatase [3] = details: DA patients at all doses; by 16 weeks
# Description: Three non-overlapping subgroups are shown: patients without AA, patients with DA and patients with non-DA AAs.
# [4] = test system: patients with OA of the knee and/or hip; assay: ISS post-hoc analysis combining OA joint burden and alkaline phosphatase cut-off (weeks 8-16); type: in vivo, human
# Description: Both the baseline burden of OA and the change in alkaline phosphatase identify patients with higher risk of AA/DA/JR; these findings are observed only in the fasinumab arms, not the placebo arm, indicating an NGF-specific mechanism. The results raise the possibility of excluding high-risk patients and treating only patients with lower risk of joint-related adverse events, using more than one approach. To understand whether there is an interaction between the two approaches, and to explore a number of potential risk mitigation options, a post-hoc analysis was performed on the ISS data set to examine the impact of alkaline phosphatase within various joint subgroups. Because efficacy was preserved in the 1-2 and 3-4 joint subgroups as discussed above, the rates of AA/DA/JR were examined in overlapping subgroups: patients with 1-2, 1-3 and 1-4 joints with OA at baseline. For each of these subgroups, five potential cut-offs for change in alkaline phosphatase were explored: no change, 5-, 10-, 15- and 20-point change from baseline.
# FIGS. 8A-8D show the percentage of patients with AA/DA/JR following exclusion of those who have a change in alkaline phosphatase at or above the designated cut-off at any time between weeks 8 and 16. In each of FIGS. 8A-8D, the X-axis represents overlapping bins of patients that become successively smaller as one looks left to right (percentage of the total population remaining in each bin is shown in the table beneath the graph). […] The next 5 bins to the right show the rates of AA/DA/JR in the patients who remain after excluding those above the designated cut-off for change in alkaline phosphatase. The placebo rate from the total ISS population is expressed as a solid black line.
# For each of the joint related adverse events, the burden of OA and change in alkaline phosphatase are complementary from the perspective of risk-reduction. FIGS. 8A, 8C, and 8E show the reduction of risk of JR, AA, and DA, respectively, in patients treated with 1 mg fasinumab Q8W, for patients with different OA burden at different cut-off values for change in alkaline phosphatase. Similarly, FIGS. 8B, 8D, and 8F show the reduction of risk of JR, AA, and DA, respectively, in patients treated with 1 mg fasinumab Q4W, for patients with different OA burden at different cut-off values for change in alkaline phosphatase. For example, for the 1Q4 treatment arm and in the 1-2 joint subgroup, the JR rate is reduced from 7.4% in the total ISS population, to 6.4% in the 1-2 joint subgroup, to 5.5% in the population below the 20-point alkaline phosphatase cut-off—a difference of 0.4% from the ISS placebo rate (FIG. 8B). Similarly, for the 1Q4 treatment arm and in the 1-2 joint subgroup, the overall AA rate (70-80% RPDA-1) is reduced from 9.2% in the total ISS population, to 7.7% in the 1-2 joint subgroup, to 7.1% in the population below the 20-point alkaline phosphatase cut-off—a difference of 5.6% from the ISS placebo rate (FIG. 8D). Last, the DA rate is reduced from 0.5% in the total ISS population, to 0.3% in the 1-2 joint subgroup, to 0.1% in the population below the 20-point alkaline phosphatase (FIG. 8F).
# [5] = test system: adults with moderate-to-severe chronic pain associated with osteoarthritis (OA) of the knee or hip; assay: FACT LTS (NCT02683239, R475-PN-1523) efficacy substudy; type: in vivo, human; details: fasinumab 1 mg Q8W and 1 mg Q4W groups
# Description: as §1
# The FACT LTS study evaluated the long-term safety and tolerability of fasinumab, including adverse events of special interest such as joint damage (e.g. arthropathies), compared with placebo. A total of 2,411 patients were randomized to one of the following treatment arms: (1) fasinumab 1 mg subcutaneous (SC) every 8 weeks (Q8W); (2) fasinumab 1 mg SC every 4 weeks (Q4W); or (3) matching placebo SC Q4W. This study also included a substudy evaluating the efficacy of fasinumab in these same patient groups (n=215 in fasinumab 1 mg Q8W, n=217 in fasinumab 1 mg Q4W, n=214 in placebo).
# [6] = FACT OA1, Week 16, fasinumab 1 mg Q4W, naproxen 2 × 500 mg/day
# [7] = 1Q4, 1-2 joint subgroup, below the 20-point alkaline phosphatase cut-off
# [8] = 1Q4, 1-2 joint subgroup, lower cut-offs for change in alkaline phosphatase
substance,measurement,setting,value
Fasinumab: fully-human high-affinity monoclonal antibody directed against NGF; HCVR/LCVR SEQ ID NOs: 2/10,"WOMAC pain, change from baseline",[1]; [6],−39%
same,"WOMAC pain, change from baseline (score, in brackets)",[1]; [6],(−2.48)
same,"WOMAC physical function, change from baseline",[1]; [6],−39%
same,"WOMAC physical function, change from baseline (score, in brackets)",[1]; [6],(−2.41)
same,"WOMAC physical function, difference vs. placebo","[1]; FACT OA1, Week 16, fasinumab 1 mg Q4W, p = 0.0001",−0.67
same,"WOMAC pain, difference vs. placebo","[1]; FACT OA1, Week 16, fasinumab 1 mg Q4W, p = 0.0003",−0.66
same,"WOMAC physical function, difference vs. naproxen","[1]; FACT OA1, Week 16, fasinumab 1 mg/month vs naproxen 2 × 500 mg/day, nominal p = 0.0006",−0.41
same,"WOMAC pain, difference vs. naproxen","[1]; FACT OA1, Week 16, fasinumab 1 mg/month vs naproxen 2 × 500 mg/day, nominal p = 0.0050",−0.35
same,co-primary endpoints: pain and physical function compared to placebo,"[1]; FACT OA1, fasinumab 1 mg Q4W, p<0.01 for all endpoints",significantly reduced pain and improved physical function compared to placebo
same,mean increase in alkaline phosphatase following initiation of therapy,alkaline phosphatase [2]; depending upon dose,5 to 10 U/L
same,time of peak of the mean increase in alkaline phosphatase,alkaline phosphatase [2]; following initiation of therapy,approximately 16 weeks
same,mean change from baseline in alkaline phosphatase,alkaline phosphatase [3],20 U/L
same,"DA rate, difference from placebo rate","[4]; 1 mg Q4W, alkaline phosphatase cut-off of 20",0.1%
same,DA rate,[4]; [7],0.1%
same,JR rate,[4]; [7],5.5%
same,"JR rate, difference from the ISS placebo rate",[4]; [7],0.4%
same,overall AA rate,[4]; [7],7.1%
same,"overall AA rate, difference from the ISS placebo rate",[4]; [7],5.6%
same,overall AA rate,[4]; [8],4.6%
same,"overall AA rate, difference from the placebo rate",[4]; [8],2.5%
same,rates of JR and DA,[4]; [8],approximately the placebo rates
same,DA rate,"[4]; 1Q4, total ISS population",0.5%
same,JR rate,"[4]; 1Q4, total ISS population",7.4%
same,overall AA rate,"[4]; 1Q4, total ISS population",9.2%
same,co-primary endpoints: pain and physical function (WOMAC score) compared to placebo,[5],significantly reduced pain and improved physical function (WOMAC score) compared to placebo
